From publication PMC3720618, “Computational and Experimental Insights into the Mechanism of Substrate Recognition and Feedback Inhibition of Protoporphyrinogen Oxidase” (PLoS ONE, 2013)
Where a chain is given by its changes, count along the chain named. In names and notes the source's numbering stands.

Legend:
[1] = target: T1, human protoporphyrinogen IX oxidase (hPPO) (Homo sapiens, UniProt P50336); experiment: fluorescence product-formation time courses showing feedback (product) inhibition; assay type: biochemical
T1 construct: gene PPOX
T1 sequence (P50336 1-477): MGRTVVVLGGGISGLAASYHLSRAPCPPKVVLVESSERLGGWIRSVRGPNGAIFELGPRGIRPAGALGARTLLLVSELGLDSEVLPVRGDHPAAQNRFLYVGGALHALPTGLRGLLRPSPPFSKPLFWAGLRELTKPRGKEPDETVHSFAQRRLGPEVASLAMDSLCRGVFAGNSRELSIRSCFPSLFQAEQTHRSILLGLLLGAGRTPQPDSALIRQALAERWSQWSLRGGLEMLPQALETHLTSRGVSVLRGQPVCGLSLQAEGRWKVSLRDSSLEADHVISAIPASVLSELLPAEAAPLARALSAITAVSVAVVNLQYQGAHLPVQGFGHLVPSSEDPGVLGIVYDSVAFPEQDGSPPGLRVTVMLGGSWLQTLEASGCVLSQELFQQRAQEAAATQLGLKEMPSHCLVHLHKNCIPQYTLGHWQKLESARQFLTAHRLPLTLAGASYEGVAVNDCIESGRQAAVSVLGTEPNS

purified protein = substrate: C=Cc1c2[nH]c(c1C)Cc1[nH]c(c(CCC(=O)O)c1C)Cc1[nH]c(c(C)c1CCC(=O)O)Cc1[nH]c(c(C)c1C=C)C2; experiment: purified protein
[2] = substrate: C=Cc1c2[nH]c(c1C)Cc1[nH]c(c(CCC(=O)O)c1C)Cc1[nH]c(c(C)c1CCC(=O)O)Cc1[nH]c(c(C)c1C=C)C2; experiment: continuous fluorometric enzyme kinetics on purified hPPO (Km); assay type: biochemical, Homo sapiens; settings: FAD active site next to FAD; model: R97, L166, R168, G169, V170, F331, L334, M368

For `C=CC1=C(C)c2cc3[nH]c(cc4nc(cc5[nH]c(cc1n2)c(C)c5CCC(=O)O)C(CCC(=O)O)=C4C)c(C)c3C=C` [protoporphyrin IX], the “fluorescence product-formation time courses showing feedback (product) inhibitio” value [1] was “The product inhibition phenomenon was obvious at low concentrations of PPO”.

B1: human protoporphyrinogen IX oxidase (hPPO) (Homo sapiens; L166N) (protein)
chain: T1 sequence (P50336 1-477) with L166N
Molecule B1 has a Km (purified protein; FAD substrate ring C) of 5.13 µM, a kcat (purified protein; FAD substrate ring C) of 0.0303 ± 0.00217 s⁻¹ and a kcat/Km (purified protein; FAD substrate ring C) of 5830 M⁻¹ s⁻¹.

B2: human protoporphyrinogen IX oxidase (hPPO) (Homo sapiens; M368K) (protein)
chain: T1 sequence (P50336 1-477) with M368K
For B2, the Km (purified protein; FAD substrate ring A) was 5.63 µM, the kcat (purified protein; FAD substrate ring A) was 0.236 ± 0.0183 s⁻¹ and the kcat/Km (purified protein; FAD substrate ring A) was 42000 M⁻¹ s⁻¹.

B3: human protoporphyrinogen IX oxidase (hPPO) (Homo sapiens; F331T) (protein)
chain: T1 sequence (P50336 1-477) with F331T
B3 gave a Km (purified protein; FAD substrate ring D) of 3.02 µM, a kcat (purified protein; FAD substrate ring D) of 0.151 ± 0.0127 s⁻¹ and a kcat/Km (purified protein; FAD substrate ring D) of 50200 M⁻¹ s⁻¹.

B4: human protoporphyrinogen IX oxidase (hPPO) (Homo sapiens; V170T) (protein)
chain: T1 sequence (P50336 1-477) with V170T
B4 was tested, and the Km (purified protein; FAD substrate ring B) was 2.97 µM, the kcat (purified protein; FAD substrate ring B) was 0.128 ± 0.011 s⁻¹ and the kcat/Km (purified protein; FAD substrate ring B) was 43200 M⁻¹ s⁻¹.

B5: human protoporphyrinogen IX oxidase (hPPO) (Homo sapiens; R168S) (protein)
chain: T1 sequence (P50336 1-477) with R168S
Work on B5 yielded a Km (purified protein; FAD substrate ring A) of 11.33 µM, a kcat (purified protein; FAD substrate ring A) of 0.0553 ± 0.00367 s⁻¹ and a kcat/Km (purified protein; FAD substrate ring A) of 4830 M⁻¹ s⁻¹.

B6: human protoporphyrinogen IX oxidase (hPPO) (Homo sapiens; G169A) (protein)
chain: T1 sequence (P50336 1-477) with G169A
Molecule B6 has a Km (purified protein; FAD substrate ring C) of 2.16 µM, a kcat (purified protein; FAD substrate ring C) of 0.00617 ± 0.000667 s⁻¹ and a kcat/Km (purified protein; FAD substrate ring C) of 2830 M⁻¹ s⁻¹.

B7: human protoporphyrinogen IX oxidase (hPPO) (Homo sapiens; L334V) (protein)
chain: T1 sequence (P50336 1-477) with L334V
Work on B7 yielded a Km (purified protein; FAD substrate ring D) of 7.08 µM, a kcat (purified protein; FAD substrate ring D) of 0.853 ± 0.103 s⁻¹ and a kcat/Km (purified protein; FAD substrate ring D) of 120000 M⁻¹ s⁻¹.

B8: human protoporphyrinogen IX oxidase (hPPO) (Homo sapiens; F331A) (protein)
chain: T1 sequence (P50336 1-477) with F331A
For B8, the Km (purified protein; FAD substrate ring D) was 6.60 µM, the kcat (purified protein; FAD substrate ring D) was 0.0727 ± 0.0065 s⁻¹ and the kcat/Km (purified protein; FAD substrate ring D) was 11000 M⁻¹ s⁻¹.

B9: human protoporphyrinogen IX oxidase (hPPO) (Homo sapiens) (protein)
chain: T1 sequence (P50336 1-477)
B9 was tested, and the Km [2] was 2.08 µM, the kcat [2] was 0.0495 ± 0.0025 s⁻¹ and the kcat/Km [2] was 23800 M⁻¹ s⁻¹.
